Measurements: article PMC7439511

Target: GST-PHD^RACK7 (human)
Assay: MST

Substance: H3.3G34R peptide (amino acids 22 to 44) (from UniProt P84243 23-45)
- Kd: 6 µM
